In patent US20090143241A1 (PENN STATE RESEARCH FOUNDATION, published 2009):
Where no end group is shown, it is not given here.

Columns and labels:
[1] = biological target: T1, ClpXP protease (E. coli ClpX6 with ClpP14) (E. coli, UniProt P0A6H1 1-424; P0A6G7 15-207); test: kinetic assays with purified peptides and E. coli proteins (GFP-tag proteolysis by ClpXP with SspB)
T1 construct: Purified recombinant proteins mixed in the assay; also called SspB-ClpXP (when SspB is added); not shown: N-terminal His6 tag from pET28a; C-terminal His6 tag from pQE70

[2] = biological target: T1, ClpXP protease (E. coli ClpX6 with …); test: GFP-tag proteolysis by ClpXP in the presence of SspB
[3] = biological target: T1, ClpXP protease (E. coli ClpX6 with …); test: continuous fluorimetric assay of GFP-tag proteolysis by ClpXP, with SspB
[4] = biological target: T1, ClpXP protease (E. coli ClpX6 with …); test: continuous fluorimetric assay of GFP-tag proteolysis by ClpXP, no SspB
[5] = biological target: T1, ClpXP protease (E. coli ClpX6 with …); test: GFP-tag proteolysis by ClpXP without SspB against with SspB
[6] = biological target: T1, ClpXP protease (E. coli ClpX6 with …); test: kinetic assays with purified peptides and E. coli proteins (GFP-tag proteolysis by ClpXP with SspB); uncompetitive model
[7] = biological target: T1, ClpXP protease (E. coli ClpX6 with …); test: cell-based or functional assay

T1 sequence (P0A6H1 whole entry, chain 1 of 2): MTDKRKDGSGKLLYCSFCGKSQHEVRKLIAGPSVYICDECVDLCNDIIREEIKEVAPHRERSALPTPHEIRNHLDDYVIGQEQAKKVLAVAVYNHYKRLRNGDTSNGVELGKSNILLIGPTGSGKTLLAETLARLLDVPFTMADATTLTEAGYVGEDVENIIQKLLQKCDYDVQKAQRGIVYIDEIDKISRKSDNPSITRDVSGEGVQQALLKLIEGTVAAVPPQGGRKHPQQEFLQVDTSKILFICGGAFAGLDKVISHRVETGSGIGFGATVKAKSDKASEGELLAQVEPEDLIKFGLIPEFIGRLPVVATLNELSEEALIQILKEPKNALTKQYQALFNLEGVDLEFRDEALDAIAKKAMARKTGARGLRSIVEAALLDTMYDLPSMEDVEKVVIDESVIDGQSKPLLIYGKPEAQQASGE
T1 sequence (P0A6G7 15-207, chain 2 of 2): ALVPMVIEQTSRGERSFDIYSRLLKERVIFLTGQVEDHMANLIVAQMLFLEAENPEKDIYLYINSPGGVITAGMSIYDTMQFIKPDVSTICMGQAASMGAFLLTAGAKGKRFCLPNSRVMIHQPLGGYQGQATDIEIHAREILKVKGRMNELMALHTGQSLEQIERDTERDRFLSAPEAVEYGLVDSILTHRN

Binder | Ki [3] [µM] | Ki [4] [µM] | also measured
CRGGRPALRVVK (The text calls XB the 11 C-terminal residues of E. coli SspB; also called linXB) [linear XB peptide, CRGGRPALRVVK] | 64 | > 1000 | Ki [1]: 56 µM; Ki [2]: 6.4 µM
SGSKGVLPL (head-to-tail cyclized (cyclic peptide), Chemically synthesized linear, circularized and HPLC purified; also called IXP3) [ICP1, cyclic SGSKGVLPL peptide] | 25 | 28 | 
SGWPYKWM (head-to-tail cyclized (cyclic peptide), Arbitrary cyclic peptide from the SGWX5 library, negative control; also called arbitrary cyclic peptide) [Con62, cyclic SGWPYKWM peptide] |  | > 1000 | 
SGWRVQGPL (head-to-tail cyclized (cyclic peptide), also called IXP4) [ICP2, cyclic SGWRVQGPL peptide] | 21 | > 1000 | fold higher KI without SspB [5]: ≥ 10 fold
SGWYGRRH (head-to-tail cyclized (cyclic peptide), also called cyclic IXP1) [IXP1, cyclic SGWYGRRH peptide] |  |  | Ki [6]: 136 µM; half-life of λ O with ClpXP and 100 µM IXP1 [7]: 1.22 h
CRGGRPALRVVK (also: cyclized in vitro, ring type not given here) [cycXB, cyclic XB peptide [CRGGRPALRVVK] (Table 4)] | 8 | 6 | Ki [2]: 8.1 µM; fold lower KI than the linear XB peptide [2]: 7 fold
RGGRPALRVVK (also: cyclized, ring type not given here, possibly the same preparation as m6; also called cyclic XB peptide) [cyclic XB, RGGRPALRVVK (Table 6)] |  |  | Ki [1]: 8 µM; fold lower KI than the linear XB peptide [2]: 7 fold
